Source: publication PMC10842940, “Establishment of dsDNA-dsDNA interactions by the condensin complex” (Molecular cell, 2023)

Key:
[1] = target: T1, Cut3^Smc4 (fission yeast condensin SMC subunit) (S. pombe, UniProt P41004 1-1324); assay: cross-linking; sulfo-SDA cross-link mass spectrometry (CLMS) of the purified five-subunit condensin complex with equimolar 124 bp linear dsDNA and 0.5 mM ADP·BeF3 (DNA-gripping state); CL buffer, 30°C 30 min, UV 365 nm on ice; 1% FDR at residue-pair level; conditions: both partners purified
T1 construct: Cut3 (Smc4), S. pombe condensin SMC subunit; cDNA cloned into an S. cerevisiae expression vector; source: S. cerevisiae (w303, pep4 deleted), co-overexpressed with the other four condensin subunits from GAL1-10 promoters; in cell extract, and purified as the complex (IgG-agarose, 3C protease elution, heparin, Superose 6)
T1 sequence (looked up): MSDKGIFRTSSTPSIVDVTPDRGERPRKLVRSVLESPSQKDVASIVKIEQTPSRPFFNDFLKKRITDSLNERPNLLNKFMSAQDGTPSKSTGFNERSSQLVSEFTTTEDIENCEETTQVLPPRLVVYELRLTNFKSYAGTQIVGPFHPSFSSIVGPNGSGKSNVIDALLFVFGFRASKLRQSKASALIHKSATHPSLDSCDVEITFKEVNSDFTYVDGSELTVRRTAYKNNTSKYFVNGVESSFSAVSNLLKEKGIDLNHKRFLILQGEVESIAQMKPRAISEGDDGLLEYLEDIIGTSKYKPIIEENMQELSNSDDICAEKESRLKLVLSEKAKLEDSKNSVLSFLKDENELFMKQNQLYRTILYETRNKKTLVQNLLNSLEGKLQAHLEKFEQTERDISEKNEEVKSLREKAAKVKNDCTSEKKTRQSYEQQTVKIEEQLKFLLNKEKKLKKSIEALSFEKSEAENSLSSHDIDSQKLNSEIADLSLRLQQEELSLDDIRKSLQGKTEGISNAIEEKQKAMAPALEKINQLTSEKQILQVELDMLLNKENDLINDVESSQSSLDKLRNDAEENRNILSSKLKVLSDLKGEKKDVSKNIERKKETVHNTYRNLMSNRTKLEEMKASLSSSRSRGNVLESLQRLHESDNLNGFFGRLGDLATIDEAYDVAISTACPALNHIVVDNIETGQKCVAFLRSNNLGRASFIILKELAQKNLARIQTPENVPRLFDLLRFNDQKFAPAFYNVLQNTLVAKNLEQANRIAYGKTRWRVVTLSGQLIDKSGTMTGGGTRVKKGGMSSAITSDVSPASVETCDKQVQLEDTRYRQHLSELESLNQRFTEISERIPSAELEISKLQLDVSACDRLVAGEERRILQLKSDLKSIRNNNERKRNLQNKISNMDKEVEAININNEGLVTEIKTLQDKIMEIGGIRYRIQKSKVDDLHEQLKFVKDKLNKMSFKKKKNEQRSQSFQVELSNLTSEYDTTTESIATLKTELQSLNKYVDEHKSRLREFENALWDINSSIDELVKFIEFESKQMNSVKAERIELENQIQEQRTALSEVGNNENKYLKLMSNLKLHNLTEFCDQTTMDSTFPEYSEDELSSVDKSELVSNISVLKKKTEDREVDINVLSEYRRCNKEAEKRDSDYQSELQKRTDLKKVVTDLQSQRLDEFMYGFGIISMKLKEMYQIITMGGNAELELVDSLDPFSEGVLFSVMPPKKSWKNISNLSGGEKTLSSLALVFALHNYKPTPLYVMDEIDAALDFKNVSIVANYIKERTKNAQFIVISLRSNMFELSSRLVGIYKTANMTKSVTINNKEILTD

[2] = target: T2, Cut14^Smc2 (fission yeast condensin SMC subunit) (S. pombe, UniProt P41003 1-1172); assay: as above; conditions: both partners purified
T2 construct: Cut14 (Smc2), S. pombe condensin SMC subunit; cDNA cloned into an S. cerevisiae expression vector; The Pk tag is used for the condensin immunoprecipitation in the DNA assays; also called Cut14-3xPk; source: S. cerevisiae (w303, pep4 deleted), co-overexpressed with the other four condensin subunits from GAL1-10 promoters; in cell extract, and purified as the complex (IgG-agarose, 3C protease …)
T2 sequence (looked up): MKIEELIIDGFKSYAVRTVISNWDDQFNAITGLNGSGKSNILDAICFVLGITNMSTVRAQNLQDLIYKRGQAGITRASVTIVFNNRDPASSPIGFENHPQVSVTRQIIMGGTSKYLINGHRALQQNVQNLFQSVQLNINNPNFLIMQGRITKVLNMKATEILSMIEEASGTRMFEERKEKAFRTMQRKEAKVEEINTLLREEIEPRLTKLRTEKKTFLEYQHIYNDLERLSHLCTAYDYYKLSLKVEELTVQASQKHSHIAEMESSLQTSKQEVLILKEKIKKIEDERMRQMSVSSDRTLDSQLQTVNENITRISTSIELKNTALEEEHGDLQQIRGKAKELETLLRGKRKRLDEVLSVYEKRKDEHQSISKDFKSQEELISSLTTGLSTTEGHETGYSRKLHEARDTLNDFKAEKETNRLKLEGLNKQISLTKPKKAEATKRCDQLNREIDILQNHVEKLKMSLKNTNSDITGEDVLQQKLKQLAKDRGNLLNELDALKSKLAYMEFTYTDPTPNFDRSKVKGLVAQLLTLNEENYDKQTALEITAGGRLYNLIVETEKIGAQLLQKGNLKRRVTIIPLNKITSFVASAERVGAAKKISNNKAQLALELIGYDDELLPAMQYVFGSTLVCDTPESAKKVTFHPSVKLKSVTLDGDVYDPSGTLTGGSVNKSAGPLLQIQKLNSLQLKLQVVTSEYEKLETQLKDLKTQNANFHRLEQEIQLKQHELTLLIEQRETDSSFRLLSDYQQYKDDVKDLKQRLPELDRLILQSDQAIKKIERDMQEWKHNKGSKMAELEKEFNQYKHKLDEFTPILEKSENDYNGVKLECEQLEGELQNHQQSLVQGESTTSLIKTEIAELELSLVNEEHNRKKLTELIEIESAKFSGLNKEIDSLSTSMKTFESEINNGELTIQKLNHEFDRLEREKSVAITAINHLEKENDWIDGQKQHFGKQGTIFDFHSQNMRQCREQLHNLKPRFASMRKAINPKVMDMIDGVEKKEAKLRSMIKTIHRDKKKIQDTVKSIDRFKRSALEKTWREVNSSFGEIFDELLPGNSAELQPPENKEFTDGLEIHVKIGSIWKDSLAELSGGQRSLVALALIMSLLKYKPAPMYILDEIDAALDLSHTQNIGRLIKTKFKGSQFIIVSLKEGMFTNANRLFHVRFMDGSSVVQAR

B1: Cnd1^Ycs4 (fission yeast condensin HEAT-repeat subunit) (natural protein, S. pombe, UniProt O94679 1-1158, looked up)
chain: MSLDLLSRLKKYIHDEENSDLDSIYAECENAGLTAVVNDVIDTLLLGTSSCFDEDCLEKLFAICSHFADLSSSVRNKVYDLLTSNISSESAILEDMISANATDFTVPQTNLETTGIAFQLTVNSLSSSNQLSVIRSSTNTVKGRKKNPTTNSNWNGISHVNALLDAIITLFQKKLSRVWTTSSERDMFLSLFLKPIYTLMESEINIKNASFRSRLFNIIGLAVQFHNHTTAAETNIIQNLQYFEHLSEYAADLVHIVTVQFNSVTLAEGIIRTLCSLEFNDNDVKGPKQVALFLVRLSSLIPNLCLKQLTQLVKLLDSESYTLRCAIIEVLANVVIDQIHDEAQNEMSESVPATVQSLMDLLSERLLDISPYCRTKVLHVFIKIFDLPIKYPRKRQEIAELVIRCLQDRSSHVRRNAIKLFSKLLTTHPFSVMHNGLLTRNIWEKGLSIIEEQLNSLQPKQQEKVVDSELEVDENLLEDATMIQDDESHEGESHLENSLSEYVDSVPAEEIVKVNLTKRFYLEALQYIDIVEAGAKIISQLLFAKNKSEVIESMDFFVFCNSFGISSSKLYIKKMIHLIWVKGTSDEGNNIQNHVLSCYKTLFFEPPPNSGTNEAANYIARNLISLTYDASLAELTSLEQMLCILMKDGYFSHLVITKLWQVYSYQKKDISRTQRRGSIIVIGMLALGNTDVVMQGLDHLIQIGLGPPGLEDLVLARYTCIAIKRIGKDASGSSNINFPNSHTLCQKLCMLLLRPSFSEEWFGLEEQAIEAIYAVAKHPDELCTNIILLLTKQLFKPSNHENTTSNDDHAMDEDLDDSPEEETLKDEEEIGIRLAHLIFLVGHVAIKQLVYIEYCEAEFKRRKADAERLAVQNSNNPINGQETSEYDLITGTSEDDFSEAMTFIRERELLYGENSLLSRFAPLVVELCSNHKSHNNQSLLLAASLTLSKFMCLSNNFCMEHLPLLITILEKCDNPIIRNNLVIGLADLTVCFNHFIDEISEYLYRRLMDEESSVKKTCFMTLAFLILAGQIKVKGQLGIMARSLEDEDARISDLARMFFTDFAAKDNSVYNNFIDIFSVLSRSAEEQDEDDAKFKRIIRFLTSFIEKERHTKQLAERLAARLDRCKTQRQWDHVVYALSLLPHKADNIQKLIDDGYHE
notes: Cnd1 (Ycs4), S. pombe condensin HEAT-repeat subunit; cDNA cloned into an S. cerevisiae expression vector; source: S. cerevisiae (w303, pep4 deleted), co-overexpressed with the other four condensin subunits from GAL1-10 promoters; in cell extract, and purified as the complex (IgG-agarose, 3C protease elution, heparin, Superose 6)
B1: binds [1]; binds [2].
